In the nanobody polyreactivity screen of Harvey et al. (2022):

Experiment: yeast display, Sf9 membrane polyspecificity reagent, FACS + sequencing; frameworks hold sequencing errors
Procedure, shortened: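 Genes from sorted yeast were amplified by colony PCR, read by MiSeq 2 × 250 sequencing and filtered on CDR length. These cells carried a synthetic nanobody library in Saccharomyces cerevisiae BJ5465 and were sorted by FACS into low and high (top ~1%) gates on anti-HA and streptavidin fluorescence. Polyreactivity is labelled according to the gate of origin.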

Sequence | polyreactivity (PSR sort gate)
QVQLVESGGGLVQAGGSLRLSCAASGFTFQYYAMGCYRQAPGKERELVAAISARDGSTYYADSVKGRFTISRDNAKNTVYLQMNSLKPEDTAVYYCAARSNYRNAYAYYYWGQGTQVTVSS | high polyreactivity
QVQLVESGGGLVHAGGSLRLSCAASGSTVSYYAMGWYRQAPGKERELVAAISTRGSSTYYADSVKGRFTISRDNAKNTVYFQMNSLKPEDTAVYYCAVDQYKYDWFYDYYGYTYGYWGQGTQVTVSS | high polyreactivity
QVQLVESGGGLVQAGGSLRLSCAASGFIFYYNTMGWYRQAPGKERELVAAISSGGRTYYADSVKGRFTISRDNAKNTVYLQMNSLKPEVTAVYYCNVVTYVKYGYWGQGTQVTVSS | high polyreactivity
QVQLVESGGGLVQAGGSLSLSCAASGSILAVNAMGWYRQAPGKERELVAAISSRGGSTSYADSVKGRFTISRDNAKNTVYLQMNSLKPEDTAVYYCAVRAVRRLRTSVPVRFYYWGQGTQVTVSS | high polyreactivity
QVQLVESGGGLVQAGGSLRLSCAASGLTFVKNAMGLYRQAPRKERELVATISSGGSTNYADSVKGRFTISRDNAKNTVYLQMNSLKPEETAVYYCNKDYTGVLLWIWWDRYDYWGQGTQVTVSS | high polyreactivity
QVQLVESGGGLVQAGGSLRLSCAASGTTFTAYAMGWYREAPGKERELVAAINWSGGTTYYADSVKGRFTISRDNAKNTVYLQMTSLKPEDTAVYYCAVDGNFFVEVSPYDYWGQGTQVTVSS | low polyreactivity
QVQLVESGGGLVQAGGSLRLSCAASGFTFQYYAMGWYRQAPGKERELVAAINWSGGRTYYADSVKGRFTISRDNAKNTVYLQMNSLKPEDTAVYYCAATRSFSGGYGYVSYDYWGQGTQVTVSS | high polyreactivity
QVKLVESGGGLVQAGGSLRLSCAASGFTFYYYTMGGSRQAPGKERELVAAITSRGGNTYYADSVKGRFTISRDYEKNTVYLQMNSLKPEDTAVYYCAACLFSSRCYGYWGQGTQVTVSS | high polyreactivity
QVQLVESGGGLVQAGGSLRLSCAASGSTFRGYAMGWSRQAPGKERELVATITSGGSTKFADSVKGRVTISRDNAKNTVYLQMNSLKPEDTAVYYFNAGPRSWSPYRHWVDFWGQGTQVTVSS | low polyreactivity
QVQLVESGGGLVQAGGSLRLSCAASGSIFGTYAKGWYRQAPGKERELVAAISKRGSTTSYADSVKGRFTISRDNAKNTVYLQMNSLKPEDTAVYYCAALTRNSGGYGSWGQGTQVTVSS | high polyreactivity
QVQLVESGGGLVQAGGSLRLSCAASGSIFYKYMGWYRQAPGKERELVAAMTWSGGSTYYADSVKGRFTISRDNAKNTVYLQMNSLKPEDTAVYYCNADDRHSRVGHSWQDAQFDYWGQGTQVTVSS | high polyreactivity
QVQLVESGGGLVQAGGSLRLSCAASGSTFKWTAMGWYRPAPGKERELVAAITGSGTGTYYADSVKGRFTISRDNAKNTVYLQMNSLKPEDTAVYYCAAYVYGYKYYYWGQGTQVTVSS | high polyreactivity
QVQLVESGGGLVQAGGSLRLSCAASGSTFNSYVMGWYRQAPGKERELVAAITSSGSTYYADSVKGRFTISRDNAKNTVYLQMNSLKPEDTAVYYCNAQDAWEWQGVWVGARDDYDYWGQGTQVTVSS | low polyreactivity
QVQLVESGGGLLQAGGSLRLSCAASGSIFRYYAKGWYRQAPGKERELVAAISYSGGRTYYADSVKGRFTISRDNAKNTVYLQMNSLKPEDTAVYYCNAGAGKRGYDYWGQGTQVTVSS | low polyreactivity
QDQLVESRGGEVQAGGSRRLRCAASGLTFLYNAMGWYRQAPGKERELVAAISQSAGSTYYADSVKGRFTISRDTAKNTVYLQLNSLKPEETAVYYFAADWDTPDLVIYDYWGQGTQVTLSS | low polyreactivity
QVQLVESGGGLVQAGGSLRLSCAASGLTFAYYAMGWYRQAPGKERELVAAISYSGGSTYYADSVKGRFTISRDNANKTVYLQMNSLKPEDTAVYYCNRDRNSGFYRRYGYWGQGTQVTVSS | high polyreactivity
QVQLVESGGGLVQAGGSLRLSCAASGFTFRRYAMGWYRQAPGKERELVATITKGGGSTYYADSVKGRFTISRDNAKNTVYLQMNSLKPEDTAVYYCAKRYPYGLTVGASDYWGQCTQVTVSS | high polyreactivity
QVQLVESGGGLVQAGGSLPLSCAASGRTYRYYAMGWYRQAPGKERELVAAITRRSGNTNYADSVKGRFTISRDNAKNTVYLQINSLKPEDTALYYCAAVGAKGARYDYWGQGTQVTVSS | high polyreactivity
QVQLVESGGGLVQAGGSLRLSCAASGSTFGDYAMGWYRQAPGKERELVAAITIGGITTYADSVKGRFTISRDNAKNTVYLQMNSLKPEDTAVYYCNADDYQYKTWYHLDYWGQGTQVTVSS | low polyreactivity
QVQLVESGGGLVQAGGSLRLSCAASGSIFSHKVMGWYRQAPGKERELVAAITYRGGSTYYADSVKGRFTISRDNAKNTVYLQMNSRKPEDTAVYYCAALNEVSTYHGFDYWGQGTQVTVSS | low polyreactivity
QVQLVESGGGLVQAGGSLRLSCAASGSIFASYAMGWYRQAPGKERELVAAISDGGGRTYYADSVKGRFTISRDNAKNTVYLQMNSLKPEDTAVYYCAAYAVYTYRRARGYWGQGTQVTVSS | high polyreactivity
QVQLVESGGGLVQARGSLRVSCAASGSTFGRYAMGWYRQAPGKDRELVAAITGSGGSTYYADSVKGRFTISRDNAKNTVYLHMNSLKPEDTAVYYCAAPVDYRRYEYEYWGQGTQVTVSS | low polyreactivity
QVQLVESGGGLVQAGGSLRLSCSASGRIFSGYAMGWYRQAPGKERELVAAITSVGSTNYADSVKGRFTISRDNAKNTVYLQMNSLKTEDTAVYYCAARSQIYYRYRSYGYWGQGTQVTVSS | high polyreactivity
QVQLEESGGGLVQEGGSLRLSCAASGSTFVTYAMGWYRPSPGKARELVAAISQSGGSTYYADSVKGRFTISRDNAKNTVYLQMNSLKPEDSAVYYCAAEYWDIAYCFVWWIYDYWGQGTLVTVSS | high polyreactivity
QVQLVESGGGLVQAGGSLRLSCAASGIIFDVYAMGWYIQAPGKERELVAAISSGGSTYYADSVKGRFTISRDNAKNTVYLQMNSLKPEDTAVYYCATAQSVIYRYEYWGQGTQVTVSS | low polyreactivity
QVQLVESGGGLVQAGGSLRLSCAASGSIFWYNAMVWYRQAPGKERELVAAISYSGDRTYYADSVKGRFTISRDNAKYTVYLQMNSLKPEDTAFYYCAKAGTGFYNSWWEDYWGQGTQVTVSS | low polyreactivity
QVQLVESGGGLVQAGGSLRLSCAASGSTFYRNAMGWYRQAPGKERELVAVITERGGNTYYADSVKGRFTISRDNAKNTVYLQMNSLKPEDTAVYYCNKQGFVDRGRYRYYWGQGTQVTVSS | high polyreactivity
QVQLVESGGGLVQAGVSLRLSCAASGSTFTTNVMGWYIQAPGKERELVAAISWSSGSTYYADSVKGRFTISRDNAKNTVYLQMNSLKPEDTAVYYCAARLVIFYPYSRYYYWGQGTQVTVSS | high polyreactivity
QVQLVESGGGLVQAGGSLRLSCAASGSTFGYYAMGWYRQAPGKERELVAAITIRGDGTYYADSVKGRFTISRDNAKNTVYLQMNSLIPEDTAVYYCAAEDWLWFDYWGQGTQVTVSS | high polyreactivity
QVQLVESGGGLVQAGGSLRLTCAASGGIFTDYTMGWYRQAPGKERELVSAITWTGGSTYYADSVKGRFTISRDNAKNTVYLQMNSLKPEDTAVYYCYVVKYVYIYSYWEYYFWGQGTQVTVSS | low polyreactivity
